Laboratory results: patent US20120107330A1 (published 2012)
Where a chain is given by its changes, count along the chain named. Blank lines part the entries; values can stand above or below the binder they belong to.

Legend:
[1] = target: T1, mouse serum albumin (MSA, Sigma-Aldrich) (mouse, UniProt P07724 25-608); assay: BIAcore, MSA on CM5 chip
T1 construct: also called mouse albumin
Experimental: (§1) FIG. 22. BIAcore analysis for binding of DOM0100-AlbudAb in-line fusions to mouse serum albumin (MSA). MSA (Sigma-Aldrich) was coated on a BIAcore CM5 chip using EDC/NHS chemistry according to manufacturer's instructions. Subsequently, the DMS constructs, each consisting N-terminally to C-terminally of an anti-TNFR1 dAb-Linker-AlbudAb and identified in Table 6, were injected at 1 μM over the MSA surface and binding was monitored. […] The corresponding BIAcore trace for each DMS clone is indicated with an arrow.
After expression and purification, all constructs were tested on the BIAcore for binding to both mouse and human serum albumin. The off-rates were determined and used to discriminate between the AlbudAbs for their suitability in prolonging the half-life of the fusion molecule. Whereas the linker had little influence on the affinity of the AlbudAb for albumin, a significant difference existed between the dAbs and their albumin affinity. The best AlbudAb for mouse binding was DOM7h-11-15 followed by DOM7m-16 and DOM7h-11-12 (FIG. 22).

[2] = target: T2, human serum albumin (HSA, Sigma-Aldrich) (human, UniProt P02768 25-609); assay: BIAcore, HSA on CM5 chip
T2 construct: also called human albumin
Experimental: as §1, with “23.” for “22.”, “human” for “mouse”, “(HSA). HSA” for “(MSA). MSA”, “HSA” for “MSA”

[3] = target: T3, human TNFR1 on MRC-5 cells (human, UniProt P19438 30-455); assay: cell-based or functional assay
T3 sequence (looked up): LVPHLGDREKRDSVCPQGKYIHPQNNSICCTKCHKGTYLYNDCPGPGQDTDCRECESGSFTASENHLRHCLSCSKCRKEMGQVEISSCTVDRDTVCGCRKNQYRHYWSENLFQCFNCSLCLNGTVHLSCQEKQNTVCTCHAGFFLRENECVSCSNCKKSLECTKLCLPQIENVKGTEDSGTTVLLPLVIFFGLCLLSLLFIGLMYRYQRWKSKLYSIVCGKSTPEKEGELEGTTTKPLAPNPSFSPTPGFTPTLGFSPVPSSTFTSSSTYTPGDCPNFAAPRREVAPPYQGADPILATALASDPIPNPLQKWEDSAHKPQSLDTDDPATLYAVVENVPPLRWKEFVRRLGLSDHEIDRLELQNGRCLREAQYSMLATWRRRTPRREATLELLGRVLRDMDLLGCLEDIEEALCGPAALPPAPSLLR

[4] = target: T4, human TNFR1 (recombinant, R&D Systems cat no. 636-R1/CF, biotinylated) (human, UniProt P19438 30-211, limits assumed, biotinylated with EZ-Link NHS-LC-LC-biotin); assay: BIAcore, TNFR1 (species not given, taken as human)
T4 construct: it is not tied to the BIAcore reagent; also called p55; hTNFR1
T4 sequence (looked up): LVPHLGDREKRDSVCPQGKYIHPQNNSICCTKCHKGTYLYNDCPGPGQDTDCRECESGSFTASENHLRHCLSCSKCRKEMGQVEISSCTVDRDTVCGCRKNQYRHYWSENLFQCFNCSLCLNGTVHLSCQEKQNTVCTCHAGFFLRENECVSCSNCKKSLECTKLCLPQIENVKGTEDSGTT

[5] = target: T3, human TNFR1 on MRC-5 cells; assay: cell-based or functional assay; remark: listed apart in the source
[6] = target: T5, mouse TNFR1 on L929 cells (mouse, UniProt P25118 30-454); assay: cell-based or functional assay
T5 sequence (looked up): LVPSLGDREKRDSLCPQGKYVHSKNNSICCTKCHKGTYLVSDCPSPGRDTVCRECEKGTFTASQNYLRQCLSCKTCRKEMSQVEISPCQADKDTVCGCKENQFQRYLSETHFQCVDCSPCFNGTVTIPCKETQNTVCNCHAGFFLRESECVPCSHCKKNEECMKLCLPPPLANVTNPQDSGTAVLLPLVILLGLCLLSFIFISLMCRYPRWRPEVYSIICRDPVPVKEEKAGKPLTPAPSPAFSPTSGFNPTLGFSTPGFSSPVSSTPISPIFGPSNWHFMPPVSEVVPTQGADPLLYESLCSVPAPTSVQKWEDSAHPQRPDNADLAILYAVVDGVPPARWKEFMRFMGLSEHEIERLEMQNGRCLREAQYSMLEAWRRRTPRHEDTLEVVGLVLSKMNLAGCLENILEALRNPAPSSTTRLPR

[7] = target: T4, human TNFR1 (recombinant, R&D Systems …); assay: BIAcore T100, biotinylated human TNFR1 on chip
Experimental: Furthermore, the affinity and potency of the purified fusion molecules were determined using a BIAcore T100 and the MRC5 cell assay, respectively. The BIAcore T100 is a highly sensitive BIAcore version ideally suited for determination of high affinity binders (Papalia et al., Anal Biochem. 359, p 112 (2006)). Biotinylated, human TNFR1 was coated on the chip and each of the twelve AlbudAb fusions were passed over this surface at four different concentrations (2, 10, 50 and 250 nM). […] This improvement is observed regardless of the AlbudAb used for pairing and largest for the pairings with DOM7h-14-18. A second experiment used to establish if the different pairings affected the functional activity of the anti-TNFR1 dAb was the MRC5 cell assay (Table 8). A more marked difference between the pairings is observed in the MRC5 assay, in which the best potencies are observed in pairings with DOM7h-11-3 and DOM7h-11-12 while pairings with DOM7h-14-10 (DMS0117) lead to significant decreases in potency.

[8] = target: T6, mouse TNFR1 (recombinant, R&D Systems cat no. 425-R1-050/CF, biotinylated) (mouse, UniProt P25118 22-212, biotinylated with EZ-Link NHS-LC-LC-biotin); assay: BIAcore, mouse TNFR1 on SA chip
T6 construct: also called murine TNFR1; biotinylated mouse TNFR1
T6 sequence (looked up): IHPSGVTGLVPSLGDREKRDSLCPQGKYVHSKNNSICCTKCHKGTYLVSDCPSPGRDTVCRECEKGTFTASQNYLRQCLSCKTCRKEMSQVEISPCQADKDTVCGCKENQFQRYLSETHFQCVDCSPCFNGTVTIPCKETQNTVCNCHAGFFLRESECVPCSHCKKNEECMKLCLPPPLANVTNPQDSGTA
Description: (§2) BIAcore was done to determine the association and dissociation rates of the different dAbs and in that way establish their binding affinity for both human and mouse TNFR1. Experiments were done using biotinylated TNFR1 (R&D Systems), of the respective species, coupled to streptavidin-coated BIAcore chips followed by injection of a concentration range of the dAbs.

[9] = target: T3, human TNFR1 on MRC-5 cells; assay: cell-based or functional assay; remark: listed apart in the source
[10] = target: T7, Cynomologus monkey TNFR1 on CYNOM-K1 cells (Cynomolgus monkey, UniProt Q2PFV5 30-455); assay: cell-based or functional assay
T7 sequence: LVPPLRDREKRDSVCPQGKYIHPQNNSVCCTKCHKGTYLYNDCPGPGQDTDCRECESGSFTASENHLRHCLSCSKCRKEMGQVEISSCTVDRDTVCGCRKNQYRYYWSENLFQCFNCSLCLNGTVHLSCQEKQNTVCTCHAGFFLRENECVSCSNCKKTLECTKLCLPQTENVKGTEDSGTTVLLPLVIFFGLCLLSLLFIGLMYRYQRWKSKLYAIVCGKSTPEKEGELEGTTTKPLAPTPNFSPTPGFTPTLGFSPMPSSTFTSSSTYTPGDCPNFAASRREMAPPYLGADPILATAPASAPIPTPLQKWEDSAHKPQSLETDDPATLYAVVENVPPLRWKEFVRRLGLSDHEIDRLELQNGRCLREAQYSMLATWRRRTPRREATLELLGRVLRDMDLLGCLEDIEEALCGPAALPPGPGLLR

[11] = target: T5, mouse TNFR1 on L929 cells; assay: cell-based or functional assay; remark: listed apart in the source
[12] = target: T3, human TNFR1 on MRC-5 cells; assay: cell-based or functional assay; remark: listed apart in the source
[13] = target: T4, human TNFR1 (recombinant, R&D Systems …); assay: BIAcore, human TNFR1 on SA chip
Description: as §2

T2 sequence (P02768 25-609 limits assumed): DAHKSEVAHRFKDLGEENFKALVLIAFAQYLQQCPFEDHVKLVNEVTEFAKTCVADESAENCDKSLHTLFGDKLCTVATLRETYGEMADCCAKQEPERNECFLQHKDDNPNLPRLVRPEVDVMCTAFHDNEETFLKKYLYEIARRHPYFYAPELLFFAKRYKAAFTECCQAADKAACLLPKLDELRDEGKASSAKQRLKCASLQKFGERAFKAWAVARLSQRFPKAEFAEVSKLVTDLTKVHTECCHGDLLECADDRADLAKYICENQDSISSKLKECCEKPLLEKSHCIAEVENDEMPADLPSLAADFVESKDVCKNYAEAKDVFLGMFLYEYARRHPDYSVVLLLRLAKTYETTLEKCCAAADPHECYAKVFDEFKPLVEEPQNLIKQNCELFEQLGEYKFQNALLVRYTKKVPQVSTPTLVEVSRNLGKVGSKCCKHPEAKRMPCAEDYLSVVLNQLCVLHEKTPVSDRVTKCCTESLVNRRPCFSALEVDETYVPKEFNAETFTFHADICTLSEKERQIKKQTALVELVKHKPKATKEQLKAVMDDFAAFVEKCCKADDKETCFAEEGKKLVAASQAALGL

B1: DMS0184 (bispecific antibody)
chain: EVQLLESGGGLVQPGGSLRLSCAASGFTFVKYSMGWVRQAPGKGPEWVSQISNTGDRTYYADSVKGRFTISRDNSKNTLYLQMNSLRAEDTAVYYCAIYTGRWEPFDYWGQGTLVTVSSASTSGPSDIQMTQSPSSLSASVGDRVTITCRASRPIGTTLSWYQQKPGKAPKLLIWFGSRLQSGVPSRFSGSGSGTDFTLTISSLQPEDFATYYCAQAGTHPTTFGQGTKVEIKR
notes: anti-TNFR1 dAb / AlbudAb in-line fusion
koff [1]: 0.72 s⁻¹
koff [2]: 0.16 s⁻¹
ND50 (MRC5) [3]: 19 nM

B2: DMS0132 (bispecific antibody)
chain: EVQLLESGGGLVQPGGSLRLSCAASGFTFVKYSMGWVRQAPGKGLEWVSQISDTADRTYYAHSVKGRFTISRDNSKNTLYLQMNSLRAEDTAVYYCAIYTGRWVPFEYWGQGTLVTVSSASTDIQMTQSPSSLSASVGDRVTITCRASRPIGTTLSWYQQKPGKAPKLLILWNSRLQSGVPSRFSGSGSGTDFTLTISSLQPEDFATYYCAQAGTHPTTFGQGTKVEIKR
notes: as for B1
Kd [4]: 0.25 nM
koff [4]: 4.6e-05 s⁻¹
kon [4]: 190000 M⁻¹ s⁻¹
MRC5 ND50 [5]: 1.04 nM
L929 ND50 [6]: 6.8 nM

B4: DMS0134 (bispecific antibody)
chain: B2 chain with V30F
notes: as for B1
Kd [4]: 0.26 nM
koff [4]: 4.9e-05 s⁻¹
kon [4]: 190000 M⁻¹ s⁻¹
MRC5 ND50 [5]: 0.96 nM
L929 ND50 [6]: 5.8 nM

B7: DMS0188 (bispecific antibody)
chain: EVQLLESGGGLVQPGGSLRLSCAASGFTFVKYSMGWVRQAPGKGPEWVSQISNTGDRTYYADSVKGRFTISRDNSKNTLYLQMNSLRAEDTAVYYCAIYTGRWEPFDYWGQGTLVTVSSASTSGPSDIQMTQSPSSLSASVGDRVTITCRASRPIGTMLSWYQQKPGKAPKLLILFGSRLQSGVPSRFSGSGSGTDFTLTISSLQPEDFATYYCAQAGTHPTTFGQGTKVEIKRAAAEQKLISEEDLN
notes: as for B1
koff [1]: 0.08 s⁻¹
koff [2]: 0.12 s⁻¹
ND50 (MRC5) [3]: 17 nM

B8: DMS0163 (bispecific antibody)
chain: B7 chain with F176A, G177F
notes: as for B1
koff [1]: 0.0062 s⁻¹
koff [2]: 0.0024 s⁻¹
ND50 (MRC5) [3]: 12 nM

Now from value to binder:

Kd [4]: 0.2 nM
koff [4]: 3.6e-05 s⁻¹
kon [4]: ~180000 M⁻¹ s⁻¹
MRC5 ND50 [5]: 0.99 nM
L929 ND50 [6]: 4.2 nM
B3: DMS0133 (bispecific antibody)
chain: B2 chain with V30F, V104A
notes: as for B1

Kd [4]: 0.32 nM
koff [4]: 5.7e-05 s⁻¹
kon [4]: 180000 M⁻¹ s⁻¹
MRC5 ND50 [5]: 1.17 nM
L929 ND50 [6]: 5.9 nM
B5: DMS0135 (bispecific antibody)
chain: B2 chain with V30F, A61S
notes: as for B1

Kd [7]: 0.53 nM
koff [7]: 0.00011 s⁻¹
kon [7]: 200000 M⁻¹ s⁻¹
Kd [8]: 6.9 nM
koff [8]: 0.00068 s⁻¹
kon [8]: 100000 M⁻¹ s⁻¹
Human MRC5 ND50 [9]: 2.7 nM
Cynomologus CYNOM-K1 ND50 [10]: 2.3 nM
Mouse L929 ND50 [11]: 46 nM
MRC5 (ND50 in nM) [12]: 2.7 nM
Kd [13]: 0.35 nM
koff [13]: 8.4e-05 s⁻¹
kon [13]: 250000 M⁻¹ s⁻¹
B6: DOM1h-574-72 (other)
VH: EVQLLESGGGLVQPGGSLRLSCAASGFTFVKYSMGWVRQAPGKGLEWVSQISNTADRTYYAHSVKGRFTISRDNSKNTLYLQMNSLRAEDTAVYYCAIYTGRWVPFEYWGQGTLVTVSS
notes: VH dAb; expressed in E. coli, purified on Protein A

koff [1]: 0.08 s⁻¹
koff [2]: 0.12 s⁻¹
ND50 (MRC5) [3]: 20 nM
B9: DMS0186 (bispecific antibody)
chain: EVQLLESGGGLVQPGGSLRLSCAASGFTFVKYSMGWVRQAPGKGPEWVSQISNTGDRTYYADSVKGRFTISRDNSKNTLYLQMNSLRAEDTAVYYCAIYTGRWEPFDYWGQGTLVTVSSASTDIQMTQSPSSLSASVGDRVTITCRASRPIGTMLSWYQQKPGKAPKLLILFGSRLQSGVPSRFSGSGSGTDFTLTISSLQPEDFATYYCAQAGTHPTTFGQGTKVEIKRAAAEQKLISEEDLN
notes: as for B1
